The numbers were not newly measured in PMC10742149, which cites them from elsewhere.

A word on the Kd: it is a measure of binding affinity in units of concentration.

For the data set, the target named is SIRP-α (Homo sapiens) (UniProt P78324).
Sequence of UniProt P78324 (P78324 31-373): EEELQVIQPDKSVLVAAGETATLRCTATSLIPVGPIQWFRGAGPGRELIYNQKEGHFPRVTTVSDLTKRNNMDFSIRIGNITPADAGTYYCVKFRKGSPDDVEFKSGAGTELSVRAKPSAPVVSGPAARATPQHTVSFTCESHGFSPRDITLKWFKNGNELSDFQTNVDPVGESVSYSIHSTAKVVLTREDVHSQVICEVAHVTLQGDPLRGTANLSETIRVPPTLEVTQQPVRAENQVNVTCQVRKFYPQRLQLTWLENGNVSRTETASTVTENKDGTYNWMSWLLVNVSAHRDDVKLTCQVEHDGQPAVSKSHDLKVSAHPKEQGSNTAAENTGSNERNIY

As for CD47 (from UniProt Q08722), the Kd was 2 µM.
